Data set [1] concerns the target T1, PARP1 (PARP-1);Pol gamma A (catalytic subunit);Pol gamma B deltaI4 (accessory subunit) (Homo sapiens?;Homo sapiens?;Homo sapiens?) (UniProt P09874+P54098+Q9UHN1). As to the kind of experiment: ITC. To be noted: Buffer RX: 25 mM Hepes pH 7.5, 140 mM KCl, 5 mM MgCl2, 5% glycerol, 1 mM BME; ITC at 25 C; EMSA incubated on ice then room temperature, 4-20% native PAGE in …. On the technique in general: Mobility shift assays separate free from complexed probe on a gel.

Data set [2] has as its target T1, PARP1 (PARP-1);Pol gamma A (catalytic subunit);Pol gamma B deltaI4 (accessory subunit) (Homo sapiens?;Homo sapiens?;Homo sapiens?). Put plainly: EMSA. As to conditions: apparent; PARP1 titrated into Pol gamma (0.5 uM)-DNA (0.75 uM); no NAD+; Buffer RX: 25 mM Hepes pH 7.5, 140 mM KCl, 5 mM MgCl2, 5% glycerol, 1 mM BME; ITC at 25 C; EMSA incubated on ice then room temperature, 4-20% native PAGE in ….

The target of data set [3] is mitochondrial DNA polymerase (Pol γ) holoenzyme, heterotrimer of Pol γA and dimeric Pol γB ΔI4 (UniProt P54098). Put plainly: ITC; PARP-1 titrated into Pol γ (5 μM) to a final 10 μM, without DNA; 25 °C; Buffer RX (25 mM Hepes pH 7.5, 140 mM KCl, 5 mM MgCl2, 5% glycerol, 1 mM BME). On the technique in general: In ITC the heat of successive injections is recorded.
A further data set deals with PARP1 (PARP-1) (UniProt P09874 1-1014). As to the kind of experiment: ITC; 25 C, 5 mM Mg2+, no NAD+; dH -58.4 kcal/mol; Buffer RX: 25 mM Hepes pH 7.5, 140 mM KCl, 5 mM MgCl2, 5% glycerol, 1 mM BME; ITC at 25 C; EMSA incubated on ice then room temperature, 4-20% native PAGE in Tris-glycine at 0 C. To be noted: protein: recombinant; tags: His (Ni-NTA purified); self-annealed dumbbell, two hairpins, 3-nt gap.
PARP1 (PARP-1), sequence (P09874 whole entry): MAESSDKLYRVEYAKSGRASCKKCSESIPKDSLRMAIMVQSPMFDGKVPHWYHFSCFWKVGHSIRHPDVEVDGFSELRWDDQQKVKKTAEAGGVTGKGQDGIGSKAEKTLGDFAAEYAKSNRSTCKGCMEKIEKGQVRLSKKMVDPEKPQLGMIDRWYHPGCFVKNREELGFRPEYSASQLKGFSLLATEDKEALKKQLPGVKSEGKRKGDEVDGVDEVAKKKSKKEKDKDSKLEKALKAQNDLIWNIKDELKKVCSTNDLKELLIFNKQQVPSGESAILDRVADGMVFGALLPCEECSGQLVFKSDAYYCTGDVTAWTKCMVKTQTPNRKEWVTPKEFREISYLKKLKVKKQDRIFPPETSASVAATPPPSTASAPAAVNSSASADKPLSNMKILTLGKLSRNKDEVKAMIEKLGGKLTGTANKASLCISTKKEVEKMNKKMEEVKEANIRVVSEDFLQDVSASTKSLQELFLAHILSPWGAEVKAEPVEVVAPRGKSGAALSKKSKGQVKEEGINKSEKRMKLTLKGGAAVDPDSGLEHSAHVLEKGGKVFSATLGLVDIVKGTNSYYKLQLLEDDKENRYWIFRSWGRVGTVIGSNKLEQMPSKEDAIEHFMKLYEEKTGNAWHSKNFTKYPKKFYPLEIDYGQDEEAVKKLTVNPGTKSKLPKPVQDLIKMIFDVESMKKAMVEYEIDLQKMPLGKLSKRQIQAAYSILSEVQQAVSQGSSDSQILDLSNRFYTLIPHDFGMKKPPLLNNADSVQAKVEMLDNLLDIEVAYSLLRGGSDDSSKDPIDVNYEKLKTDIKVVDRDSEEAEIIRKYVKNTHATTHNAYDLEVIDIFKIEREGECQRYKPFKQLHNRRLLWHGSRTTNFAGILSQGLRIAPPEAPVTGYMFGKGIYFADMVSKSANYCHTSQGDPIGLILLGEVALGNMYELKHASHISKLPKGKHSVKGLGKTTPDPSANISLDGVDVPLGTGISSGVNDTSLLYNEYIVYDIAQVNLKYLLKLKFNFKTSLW

T1 sequence (P09874 whole entry, stated change not applied, chain 1 of 3): as the sequence (P09874 whole entry) above
T1 sequence (P54098 30-1239, stated change not applied, chain 2 of 3): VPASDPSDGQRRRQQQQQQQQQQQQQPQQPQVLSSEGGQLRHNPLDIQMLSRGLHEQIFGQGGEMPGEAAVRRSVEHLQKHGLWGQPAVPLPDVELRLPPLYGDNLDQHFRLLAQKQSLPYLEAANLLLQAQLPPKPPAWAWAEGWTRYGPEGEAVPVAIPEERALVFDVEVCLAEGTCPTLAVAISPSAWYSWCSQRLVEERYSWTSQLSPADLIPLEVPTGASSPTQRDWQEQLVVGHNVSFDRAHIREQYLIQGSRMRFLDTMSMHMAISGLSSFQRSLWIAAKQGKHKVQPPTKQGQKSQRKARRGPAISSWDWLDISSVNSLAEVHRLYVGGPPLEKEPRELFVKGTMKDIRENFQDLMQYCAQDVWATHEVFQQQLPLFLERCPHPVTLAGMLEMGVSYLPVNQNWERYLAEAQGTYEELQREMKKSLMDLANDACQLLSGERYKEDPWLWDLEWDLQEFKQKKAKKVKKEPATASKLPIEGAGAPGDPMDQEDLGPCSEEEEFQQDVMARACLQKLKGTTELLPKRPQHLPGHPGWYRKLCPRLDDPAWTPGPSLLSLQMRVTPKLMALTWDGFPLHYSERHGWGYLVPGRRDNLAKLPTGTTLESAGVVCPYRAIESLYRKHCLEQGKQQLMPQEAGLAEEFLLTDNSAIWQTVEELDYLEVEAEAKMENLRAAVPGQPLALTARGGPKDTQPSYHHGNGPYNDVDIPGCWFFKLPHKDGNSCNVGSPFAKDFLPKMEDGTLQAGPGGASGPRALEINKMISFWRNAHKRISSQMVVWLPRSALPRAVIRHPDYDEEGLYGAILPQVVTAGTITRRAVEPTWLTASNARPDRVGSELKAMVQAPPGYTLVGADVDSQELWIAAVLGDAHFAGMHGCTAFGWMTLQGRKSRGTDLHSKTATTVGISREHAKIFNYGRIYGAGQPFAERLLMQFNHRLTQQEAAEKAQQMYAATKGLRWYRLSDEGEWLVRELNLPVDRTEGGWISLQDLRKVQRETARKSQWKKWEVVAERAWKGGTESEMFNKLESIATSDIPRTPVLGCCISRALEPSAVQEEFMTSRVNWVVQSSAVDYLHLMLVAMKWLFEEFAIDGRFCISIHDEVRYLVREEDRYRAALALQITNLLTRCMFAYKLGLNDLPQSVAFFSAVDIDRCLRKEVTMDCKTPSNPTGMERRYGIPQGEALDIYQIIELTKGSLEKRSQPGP
T1 sequence (Q9UHN1 whole entry, stated change not applied, chain 3 of 3): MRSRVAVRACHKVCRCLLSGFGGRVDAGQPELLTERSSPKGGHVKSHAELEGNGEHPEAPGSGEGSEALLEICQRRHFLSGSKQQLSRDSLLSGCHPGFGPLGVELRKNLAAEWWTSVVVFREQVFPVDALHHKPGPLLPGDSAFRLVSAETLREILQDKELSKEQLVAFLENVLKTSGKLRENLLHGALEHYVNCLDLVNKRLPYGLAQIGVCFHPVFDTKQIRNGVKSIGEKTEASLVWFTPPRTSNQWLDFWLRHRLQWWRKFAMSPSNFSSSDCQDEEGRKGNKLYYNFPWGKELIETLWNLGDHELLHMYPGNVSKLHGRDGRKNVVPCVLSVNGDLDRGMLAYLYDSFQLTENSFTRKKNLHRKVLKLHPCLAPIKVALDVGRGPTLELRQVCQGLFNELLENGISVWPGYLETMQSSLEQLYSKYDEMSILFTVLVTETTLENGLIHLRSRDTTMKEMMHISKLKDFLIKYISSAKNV

As for “CTTTTCTGGTGAAAAGCTCGTCGGCAGCGCTTGAGCAGCGGCAGCTGGTGCTGCCGCTGCTCAAGCGCTGCCGAC [d3ntgap (75-nt dumbbell with 3-nt gap)]”, the Kd in data set [1] is 111 nM; in data set [2], 600 nM.
Turning to “Poly(ADP-ribose) polymerase 1 (from UniProt P09874 1-1014) (enzyme)”, the Kd in data set [3] was greater than 10 µM.

B1: d3ntgap (75-nt dumbbell with 3-nt gap) (structured_DNA)
DNA: CTTTTCTGGTGAAAAGCTCGTCGGCAGCGCTTGAGCAGCGGCAGCTGGTGCTGCCGCTGCTCAAGCGCTGCCGAC
In the case of B1, the Kd with PARP1 (PARP-1) was 36.4 nM.

These data come from publication PMC7949115, “Poly(ADP-ribose) polymerase 1 regulates mitochondrial DNA repair in an NAD-dependent manner”.
